# In publication PMC2945938, “The characterization of conserved binding motifs and potential target genes for M. tuberculosis MtrAB reveals a link between the two-component system and the drug resistance of M. smegmatis”:
# T1: MtrA (Mycobacterium tuberculosis) (UniProt P9WGM7)
# T1 sequence: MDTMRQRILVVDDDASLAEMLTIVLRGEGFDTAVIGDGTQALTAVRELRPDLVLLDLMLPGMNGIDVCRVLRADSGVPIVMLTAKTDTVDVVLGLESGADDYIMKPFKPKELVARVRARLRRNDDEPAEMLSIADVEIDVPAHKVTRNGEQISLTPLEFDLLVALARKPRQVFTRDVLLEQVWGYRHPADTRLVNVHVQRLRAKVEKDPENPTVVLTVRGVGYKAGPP
# T2: MtrA (Mycobacterium tuberculosis, UniProt P9WGM7 1-228)
# T2 sequence: T1 sequence
# B1: S5 (dsDNA)
# DNA 1: AACACGAGGATCGCGAGCCGTTGCCGGTAGGTTGCGGCTGGT
# DNA 2: ACCAGCCGCAACCTACCGGCAACGGCTCGCGATCCTCGTGTT
# B2: Rv0574cp (dsDNA)
# DNA 1: GCGGTCTTGAGGACCTTCGGCCCCACCCACGAGGCCGCCG
# DNA 2: CGGCGGCCTCGTGGGTGGGGCCGAAGGTCCTCAAGACCGC
# B3: S2 (dsDNA)
# DNA 1: TCACGCCGTTTCAGCGTGGAAACGGCACTC
# DNA 2: GAGTGCCGTTTCCACGCTGAAACGGCGTGA
# B4: Rv3476cp (kgtP) (dsDNA)
# DNA 1: CTGCATCCACGCCGGCGACACGCCGAGGGACG
# DNA 2: CGTCCCTCGGCGTGTCGCCGGCGTGGATGCAG
# B5: S4 (dsDNA)
# DNA 1: GCGAGCCGTTGCCGGTAGGTTGCGGCTGGT
# DNA 2: ACCAGCCGCAACCTACCGGCAACGGCTCGC
# B6: Rv0341p (iniB) (dsDNA)
# DNA 1: CGCCGGTCACGCCGGCGAACA
# DNA 2: TGTTCGCCGGCGTGACCGGCG
# B7: CglumepAp (dsDNA)
# DNA 1: CCCCTAGCACGGCGTGTTTGG
# DNA 2: CCAAACACGCCGTGCTAGGGG
# B8: S3 (dsDNA)
# DNA 1: TTTCAGCGTGGAAACGGCACTC
# DNA 2: GAGTGCCGTTTCCACGCTGAAA
# B9: CgluproPp (dsDNA)
# DNA 1: GACTTTTCACCCCGAACCTTA
# DNA 2: TAAGGTTCGGGGTGAAAAGTC
# B10: Negative control (dsDNA)
# DNA 1: CGGAGGTGGTTTTCGCTGCT
# DNA 2: AGCAGCGAAAACCACCTCCG
# B11: S1 (dsDNA)
# DNA 1: GCGGTGTAGTTATCACGCCG
# DNA 2: CGGCGTGATAACTACACCGC
# Legend:
# [1] = biological target: T1, MtrA (Mycobacterium tuberculosis); test: DNase I footprinting
# [2] = biological target: T2, MtrA; test: EMSA; 100-600 nM MtrA; settings: protein: recombinant, tags: 6His (pET28a) or GST (pGEX-4T-1), chain copies: 2
# [3] = biological target: T2, MtrA; test: EMSA; settings: protein: recombinant; tags: 6His (pET28a) or GST (pGEX-4T-1); chain copies: 2; label: 32P
molecule,measurement,setting,value
AATTCTACGGAAAACTGTTAGCTTCGGGCGGTGTAGTTATCACGCCGTTTCAGCGTGGAAACGGCACTCGACAATCAAGCGAGGATGGC (double strand) [S6 (84 bp)],binding,[1],binds
AATTCTAGCGGCCCGGACAACTTGAACCGGGTGTTTTCAACACGAGGATCGCGAGCCGTTGCCGGTAGGTTGCGGCTGGT (double strand) [S7 (75 bp)],binding,[1],binds
B1,binding result,[2]; label: 32P (EMSA),binds
B2,binding result,[3],binds
B3,binding result,[2]; label: 32P (EMSA),binds
B4,binding result,[3],binds
B5,binding result,[2]; label: 32P,no binding
B6,binding result,[3],binds
B7,binding result,[3],binds
B8,binding result,[2]; label: 32P,no binding
B9,binding result,[3],binds
B10,binding result,[3],no binding
B11,binding result,[2]; label: 32P,binds
